Key:
[1] = biological target: T1, human FAPα (Fibroblast activation protein alpha), cell surface expressed (human, UniProt Q12884 1-760); test: flow cytometry, human lung fibroblasts, n = 2
T1 construct: Endogenous on human lung fibroblasts and CAFs
T1 sequence: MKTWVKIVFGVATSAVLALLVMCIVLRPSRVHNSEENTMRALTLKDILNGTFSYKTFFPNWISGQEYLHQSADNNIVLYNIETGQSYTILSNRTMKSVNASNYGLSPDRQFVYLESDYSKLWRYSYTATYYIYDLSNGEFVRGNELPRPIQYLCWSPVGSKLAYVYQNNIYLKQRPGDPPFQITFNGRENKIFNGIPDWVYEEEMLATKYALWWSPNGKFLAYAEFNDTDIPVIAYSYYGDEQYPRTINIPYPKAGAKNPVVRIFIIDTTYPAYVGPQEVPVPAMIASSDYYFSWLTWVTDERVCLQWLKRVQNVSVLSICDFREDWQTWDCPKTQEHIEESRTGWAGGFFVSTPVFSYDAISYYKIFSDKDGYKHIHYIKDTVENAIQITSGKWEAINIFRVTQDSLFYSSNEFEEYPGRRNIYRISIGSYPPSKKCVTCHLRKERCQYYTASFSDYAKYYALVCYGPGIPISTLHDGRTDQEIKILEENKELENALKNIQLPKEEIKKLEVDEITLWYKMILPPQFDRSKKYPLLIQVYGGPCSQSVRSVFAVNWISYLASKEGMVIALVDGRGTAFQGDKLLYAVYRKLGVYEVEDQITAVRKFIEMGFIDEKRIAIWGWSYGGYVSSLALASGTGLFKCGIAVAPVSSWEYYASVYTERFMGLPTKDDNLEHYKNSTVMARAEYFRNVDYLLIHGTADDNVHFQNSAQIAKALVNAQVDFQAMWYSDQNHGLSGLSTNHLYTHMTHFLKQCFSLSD
Protocol: Binding of bispecific or monoclonal antibodies carrying the anti-FAPα arm derived from IgG1-FAPα-FERL (BisG1-FAPα-FERL/DR4-FERR, BisG1-FAPα-FERL/b12-FERR, and IgG1-FAPα-FERL) to cell surface expressed human FAPα was analyzed by flow cytometry using human lung fibroblasts and CAFs, which endogenously express FAPα. BisG1-b12-FERL/b12-FERR was used as negative control.
Human lung fibroblasts and CAFs (50,000 cells/well) were seeded in 96-Well round bottom plates (Greiner Bio-one, Cat #650101). Antibody dilutions were prepared using fluorescence-activated cell sorting (FACS) buffer, consisting of phosphate buffer saline (PBS, Lonza, Cat #BE17-517Q)+1% Bovine Serum Albumin (BSA, Roche, Cat #10735086001)+0.02% Sodium Azide (Bio-World, Cat #41920044-3). Plates were centrifuged, supernatant was removed, cells were resuspended in 50 μL of human Fc Block (BD, Cat #564220, diluted 1:100 in FACS buffer) and 50 μL of viability stain TO-PRO-3 Iodide (Thermo Fisher, Cat #T3605, diluted 1: 25,000 in FACS buffer), and incubated for 15 min at 4° C. Plates were washed three times with FACS buffer. Plates were centrifuged, supernatant was removed, cells were resuspended in 50 μL of antibody dilutions (concentration range 90-0.0005 μg/mL, three-fold dilution steps using FACS buffer) of BisG1-FAPα-FERL/DR4-FERR, BisG1-FAPα-FERL/b12-FERR, BisG1-b12-FERL/b12-FERR (top six concentrations only for CAFs culture) or IgG1-FAPα-FERL (top four concentrations only for CAFs culture) and incubated for 30 min at 4° C. Cells were washed three times with FACS buffer and resuspended in 50 μL of Fluorescein isothiocyanate (FITC)-labeled polyclonal antibody goat anti-mouse IgG1 (Jackson Immuno Research, Cat #109-096-097, diluted 1:100 in FACS buffer). […] Antibody binding to viable cells (TO-PRO-3 negative) was analyzed by flow cytometry on a FACSCelesta™ (BD biosciences) and data were processed using FlowJo_v10.8.1 (FlowJo LLC). Geomean fluorescence intensity, gMFI, was determined and visualized using GraphPad Prism.

[2] = biological target: T2, human DR4 (Death Receptor 4), cell surface expressed on human tumor cell lines (human, UniProt O00220 24-468); test: flow cytometry, A549 cells, n = 2
T2 construct: also called TNFRSF10A; TRAIL-R1
T2 sequence: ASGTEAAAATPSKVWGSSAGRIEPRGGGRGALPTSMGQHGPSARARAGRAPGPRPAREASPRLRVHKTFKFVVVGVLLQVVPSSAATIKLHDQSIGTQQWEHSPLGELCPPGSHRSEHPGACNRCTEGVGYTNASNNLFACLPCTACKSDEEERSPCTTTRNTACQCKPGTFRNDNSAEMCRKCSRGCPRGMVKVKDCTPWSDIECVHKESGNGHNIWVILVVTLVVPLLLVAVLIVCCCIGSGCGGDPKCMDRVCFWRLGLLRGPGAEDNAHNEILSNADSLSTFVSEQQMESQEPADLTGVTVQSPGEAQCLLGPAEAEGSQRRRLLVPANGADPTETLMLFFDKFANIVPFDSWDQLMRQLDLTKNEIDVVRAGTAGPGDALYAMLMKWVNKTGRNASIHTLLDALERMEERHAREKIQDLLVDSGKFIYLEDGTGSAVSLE

[3] = biological target: T2, human DR4 (Death Receptor 4), cell …; test: flow cytometry, PANC-1 cells, n = 3
[4] = biological target: T2, human DR4 (Death Receptor 4), cell …; test: flow cytometry, HCT-116 cells, n = 1
[5] = biological target: T2, human DR4 (Death Receptor 4), cell …; test: flow cytometry, DLD-1 cells, n = 1
[6] = biological target: T2, human DR4 (Death Receptor 4), cell …; test: flow cytometry, DLD-1 cells, n = 2

- EC50 [1]: 0.047 µg/mL
B1: BisG1-FAPα-FERL/DR4-FERR (bispecific antibody, human IgG1, kappa, lambda)
heavy 1: EVQLLESGGGLVQPGGSPRLSCEASGFTFSSYALSWVRQAPGKGLEWVSAISGSGGGRYYADSVKGRFTISRDNSKNTLFLQMNSLRAEDTAVYYCAKEGYSSSGTYWDHWGQGTLVTVSSASTKGPSVFPLAPSSKSTSGGTAALGCLVKDYFPEPVTVSWNSGALTSGVHTFPAVLQSSGLYSLSSVVTVPSSSLGTQTYICNVNHKPSNTKVDKRVEPKSCDKTHTCPPCPAPEFERGPSVFLFPPKPKDTLMISRTPEVTCVVVDVSHEDPEVKFNWYVDGVEVHNAKTKPREEQYNSTYRVVSVLTVLHQDWLNGKEYKCKVSNKALPAPIEKTISKAKGQPREPQVYTLPPSREEMTKNQVSLTCLVKGFYPSDIAVEWESNGQPENNYKTTPPVLDSDGSFLLYSKLTVDKSRWQQGNVFSCSVMHEALHNHYTQKSLSLSPG
light 1: AIQMTQSPSSVSASVGDRVTITCRASQGVSSWLAWYQQKPGRAPKLLIYVASTLQSGVPSRFSGSGSGTDFTLTINSLQPEDFATYYCQQANSFPPTFGQGTRLEMKRTVAAPSVFIFPPSDEQLKSGTASVVCLLNNFYPREAKVQWKVDNALQSGNSQESVTEQDSKDSTYSLSSTLTLSKADYEKHKVYACEVTHQGLSSPVTKSFNRGEC
heavy 2: QVQLQESGPGLVKPSGTLSLTCAVSGGSISSYSWWSWIRQPPGKGLEWIGELYHSGSTNYNPSLKSRVTISVDKSKNQFSLKLRSVTAADTAVYYCVRGVATIDYWGQGTLVTVSSASTKGPSVFPLAPSSKSTSGGTAALGCLVKDYFPEPVTVSWNSGALTSGVHTFPAVLQSSGLYSLSSVVTVPSSSLGTQTYICNVNHKPSNTKVDKRVEPKSCDKTHTCPPCPAPEFERGPSVFLFPPKPKDTLMISRTPEVTCVVVDVSHEDPEVKFNWYVDGVEVHNAKTKPREEQYNSTYRVVSVLTVLHQDWLNGKEYKCKVSNKALPAPIEKTISKAKGQPREPQVYTLPPSREEMTKNQVSLTCLVKGFYPSDIAVEWESNGQPENNYKTTPPVLDSDGSFFLYSRLTVDKSRWQQGNVFSCSVMHEALHNHYTQKSLSLSPG
light 2: QSALTQPPSASGSPGQSVTISCTGTSSDVGGYNFVSWYQQDPGKAPKLLIYEVTKRPSGVPDRFSGSKSGNTASLTVSGLQAEDEADYYCSSYAGSNNVMFGGGTKLTVLGQPKAAPSVTLFPPSSEELQANKATLVCLISDFYPGAVTVAWKADSSPVKAGVETTTPSKQSNNKYAASSYLSLTPEQWKSHRSYSCQVTHEGSTVEKTVAPTECS
notes: Human IgG1 bispecific made by controlled Fab-arm exchange of IgG1-FAPα-FERL and IgG1-DR4-FERR; monovalent for FAPα and for DR4; also called GEN1057
- EC50 [2]: 0.93 µg/mL
- EC50 [3]: 1.4 µg/mL
- EC50 [4]: 0.48 µg/mL
- EC50 [5]: 0.75 µg/mL
- EC50 [6]: 0.73 µg/mL

From patent US20250002610A1 (Genmab, published 2025)
